Experiments:
[1] = biological target: recombinant Her2, biotinylated (UniProt P04626); assay: SPR
[2] = biological target: Her2 on SK-BR-3 cells (human (endogenous in SK-BR-3)) (UniProt P04626); assay: flow cytometry on cells
[3] = biological target: recombinant Her2, biotinylated (UniProt P04626); assay: plate binding titration of dye-labelled affibody

Kd [1]: 0.115 nM
Kd [2]: 7.12 nM
Kd [3]: 11 nM
Substance: Her2-specific affibody ZHer2:2891 conjugated with AlexaFluor 488nm dye (designed binder)

— PMC10691555
